Measurements reported in the Human Domainome abundance scans (Beltran et al. 2025).
± gives the uncertainty stated by the source.

B1: Triacylglycerol hydrolase DDHD2, residues 389 to 447; numbered along this chain, O94830 (parent)
chain: TLEEDLKKLQLSEFFDIFEKEKVDKEALALCTDRDLQEIGIPLGPRKKILNYFSTRKNS

Variants of: B1
Test: abundance fitness (aPCA) (normalised: wild type 0, dead -1); higher = more abundant; growth selection in yeast, the domain comes from the species named
Conditions: Homo sapiens
TLEEDLKKLQLSEFFDIFEKEKVDKEALALCTDIDLQEIGIPLGPRKKILNYFSTRKNS [R34I] showed an abundance fitness of -0.135 ± 0.13. TLEEDLKKLQLSEFFDIFEKEKVDKEALALCTDFDLQEIGIPLGPRKKILNYFSTRKNS [R34F] showed an abundance fitness of 0.174 ± 0.089. In the case of TLEEDLKKLQLSEFFDIFEKEKVDKEALALCTDTDLQEIGIPLGPRKKILNYFSTRKNS [R34T], the abundance fitness is reported as 0.076 ± 0.082. For TLEEDLKKLQLSEFFDIFEKEKVDKEALALCPDRDLQEIGIPLGPRKKILNYFSTRKNS [T32P], the abundance fitness was -0.589 ± 0.11. TLEEDLKKLQLSEFFDIFEKEKVDKEALALCEDRDLQEIGIPLGPRKKILNYFSTRKNS [T32E] gave an abundance fitness of 0.056 ± 0.091. Work on TLEEDLKKLQLSEFFDIFEKEKVDKEALALCKDRDLQEIGIPLGPRKKILNYFSTRKNS [T32K] yielded an abundance fitness of 0.083 ± 0.097. In the case of TLEEDLKKLQLSEFFDIFEKEKVDKEALALCFDRDLQEIGIPLGPRKKILNYFSTRKNS [T32F], the abundance fitness is reported as -1.18 ± 0.2. In the case of TLEEDLKKLQLSEFFDIFEKEKVDKEALALCVDRDLQEIGIPLGPRKKILNYFSTRKNS [T32V], the abundance fitness is reported as -0.631 ± 0.082. TLEEDLKKLQLSEFFDIFEKEKVDKEALALCSDRDLQEIGIPLGPRKKILNYFSTRKNS [T32S] showed an abundance fitness of -0.053 ± 0.072. In the case of TLEEDLKKLQLSEFFDIFEKEKVDKEALALCCDRDLQEIGIPLGPRKKILNYFSTRKNS [T32C], the abundance fitness is reported as -0.494 ± 0.1. TLEEDLKKLQLSEFFDIFEKEKVDKEALALCMDRDLQEIGIPLGPRKKILNYFSTRKNS [T32M] showed an abundance fitness of -0.299 ± 0.1. In the case of TLEEDLKKLQLSEFFDIFEKEKVDKEALALCDDRDLQEIGIPLGPRKKILNYFSTRKNS [T32D], the abundance fitness is reported as -0.163 ± 0.097. Variant TLEEDLKKLQLSEFFDIFEKEKVDKEALALCYDRDLQEIGIPLGPRKKILNYFSTRKNS [T32Y] has an abundance fitness of -0.388 ± 0.12. TLEEDLKKLQLSEFFDIFEKEKVDKEALALCQDRDLQEIGIPLGPRKKILNYFSTRKNS [T32Q] gave an abundance fitness of -0.251 ± 0.12. With TLEEDLKKLQLSEFFDIFEKEKVDKEALALCLDRDLQEIGIPLGPRKKILNYFSTRKNS [T32L] the abundance fitness was -0.907 ± 0.1. With TLEEDLKKLQLSEFFDIFEKEKVDKEALALCADRDLQEIGIPLGPRKKILNYFSTRKNS [T32A] the abundance fitness was -0.226 ± 0.086. TLEEDLKKLQLSEFFDIFEKEKVDKEALALCHDRDLQEIGIPLGPRKKILNYFSTRKNS [T32H] gave an abundance fitness of -0.359 ± 0.14. TLEEDLKKLQLSEFFDIFEKEKVDKEALALCGDRDLQEIGIPLGPRKKILNYFSTRKNS [T32G] showed an abundance fitness of -0.337 ± 0.069. TLEEDLKKLQLSEFFDIFEKEKVDKEALALCNDRDLQEIGIPLGPRKKILNYFSTRKNS [T32N] showed an abundance fitness of -0.217 ± 0.13. Work on TLEEDLKKLQLSEFFDIFEKEKVDKEALALCIDRDLQEIGIPLGPRKKILNYFSTRKNS [T32I] yielded an abundance fitness of -0.924 ± 0.14. Work on TLEEDLKKLQLSEFFDIFEKEKVDKEALALSTDRDLQEIGIPLGPRKKILNYFSTRKNS [C31S] yielded an abundance fitness of 0.165 ± 0.063. For TLEEDLKKLQLSEFFDIFEKEKVDKEALALRTDRDLQEIGIPLGPRKKILNYFSTRKNS [C31R], the abundance fitness was -0.188 ± 0.071. Variant TLEEDLKKLQLSEFFDIFEKEKVDKEALALWTDRDLQEIGIPLGPRKKILNYFSTRKNS [C31W] has an abundance fitness of 0.44 ± 0.08. TLEEDLKKLQLSEFFDIFEKEKVDKEALALTTDRDLQEIGIPLGPRKKILNYFSTRKNS [C31T] gave an abundance fitness of 0.145 ± 0.1. Work on TLEEDLKKLQLSEFFDIFEKEKVDKEALALQTDRDLQEIGIPLGPRKKILNYFSTRKNS [C31Q] yielded an abundance fitness of -0.145 ± 0.13. TLEEDLKKLQLSEFFDIFEKEKVDKEALALYTDRDLQEIGIPLGPRKKILNYFSTRKNS [C31Y] gave an abundance fitness of 0.626 ± 0.11. With TLEEDLKKLQLSEFFDIFEKEKVDKEALALCTDRLLQEIGIPLGPRKKILNYFSTRKNS [D35L] the abundance fitness was -0.762 ± 0.08. TLEEDLKKLQLSEFFDIFEKEKVDKEALALCTDRWLQEIGIPLGPRKKILNYFSTRKNS [D35W] gave an abundance fitness of -0.429 ± 0.1. Variant TLEEDLKKLQLSEFFDIFEKEKVDKEALALCTDRFLQEIGIPLGPRKKILNYFSTRKNS [D35F] has an abundance fitness of -0.311 ± 0.12. TLEEDLKKLQLSEFFDIFEKEKVDKEALALCTDRMLQEIGIPLGPRKKILNYFSTRKNS [D35M] gave an abundance fitness of 0.215 ± 0.083. With TLEEDLKKLQLSEFFDIFEKEKVDKEALALCTDRYLQEIGIPLGPRKKILNYFSTRKNS [D35Y] the abundance fitness was 0.207 ± 0.12. In the case of TLEEDLKKLQLSEFFDIFEKEKVDKEALALCTDRCLQEIGIPLGPRKKILNYFSTRKNS [D35C], the abundance fitness is reported as -0.278 ± 0.12. Work on TLEEDLKKLQLSEFFDIFEKEKVDKEALALCTDRHLQEIGIPLGPRKKILNYFSTRKNS [D35H] yielded an abundance fitness of 0.087 ± 0.13. TLEEDLKKLQLSEFFDIFEKEKVDKEALALCTDRELQEIGIPLGPRKKILNYFSTRKNS [D35E] showed an abundance fitness of 0.197 ± 0.073. Work on TLEEDLKKLQLSEFFDIFEKEKVDKEALALCTDRTLQEIGIPLGPRKKILNYFSTRKNS [D35T] yielded an abundance fitness of -0.264 ± 0.087. TLEEDLKKLQLSEFFDIFEKEKVDKEALALCTDRKLQEIGIPLGPRKKILNYFSTRKNS [D35K] gave an abundance fitness of 0.313 ± 0.081. TLEEDLKKLQLSEFFDIFEKEKVDKEALALCTDRGLQEIGIPLGPRKKILNYFSTRKNS [D35G] showed an abundance fitness of -0.182 ± 0.074. With TLEEDLKKLQLSEFFDIFEKEKVDKEALALCTDRNLQEIGIPLGPRKKILNYFSTRKNS [D35N] the abundance fitness was -0.06 ± 0.12. TLEEDLKKLQLSEFFDIFEKEKVDKEALALCTDRILQEIGIPLGPRKKILNYFSTRKNS [D35I] showed an abundance fitness of -1.13 ± 0.19. TLEEDLKKLQLSEFFDIFEKEKVDKEALALCTDRALQEIGIPLGPRKKILNYFSTRKNS [D35A] gave an abundance fitness of -0.309 ± 0.084. TLEEDLKKLQLSEFFDIFEKEKVDKEALALCTDRQLQEIGIPLGPRKKILNYFSTRKNS [D35Q] showed an abundance fitness of 0.271 ± 0.088. For TLEEDLKKLQLSEFFDIFEKEKVDKEALALCTDRVLQEIGIPLGPRKKILNYFSTRKNS [D35V], the abundance fitness was -0.818 ± 0.087. In the case of TLEEDLKKLQLSEFFDIFEKEKVDKEALALCTDRRLQEIGIPLGPRKKILNYFSTRKNS [D35R], the abundance fitness is reported as 0.053 ± 0.07. Work on TLEEDLKKLQLSEFFDIFEKEKVDKEALALCTDRSLQEIGIPLGPRKKILNYFSTRKNS [D35S] yielded an abundance fitness of -0.051 ± 0.07. Variant TLEEDLKKLQLSEFFDIFEKEKVDKEALALCTDRPLQEIGIPLGPRKKILNYFSTRKNS [D35P] has an abundance fitness of -0.937 ± 0.14.
